This is an account of results in PMC3119452 (Structure (London, England : 1993), 2010).

In data set [1] the target is full-length HYL1 (Arabidopsis HYPONASTIC LEAVES1) (Arabidopsis) (UniProt O04492). As to the kind of experiment: SEC.
Data set [2] has the same target. The data set can be described thus: SEC. This is another data set of the same source. For orientation: Size exclusion chromatography separates by hydrodynamic size, large species first.
The data set “crystal structure” deals with the molecule itself. As to the kind of experiment: crystal structure.
In the next data set the target is T1, GST-HYL1 fusion protein (Arabidopsis, UniProt O04492 1-419).
T1 sequence (looked up): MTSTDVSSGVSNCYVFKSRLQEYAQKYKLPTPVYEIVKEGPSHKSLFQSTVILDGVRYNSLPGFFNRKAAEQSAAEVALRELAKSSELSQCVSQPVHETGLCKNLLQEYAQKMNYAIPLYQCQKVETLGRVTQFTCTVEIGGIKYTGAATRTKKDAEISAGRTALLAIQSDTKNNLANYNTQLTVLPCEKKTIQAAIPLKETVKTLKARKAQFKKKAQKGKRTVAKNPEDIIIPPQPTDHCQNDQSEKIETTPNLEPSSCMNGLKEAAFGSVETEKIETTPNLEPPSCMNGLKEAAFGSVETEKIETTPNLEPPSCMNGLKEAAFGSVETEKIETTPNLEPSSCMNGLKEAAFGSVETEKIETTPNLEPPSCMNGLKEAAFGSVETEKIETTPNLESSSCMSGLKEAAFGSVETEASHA
The data set can be described thus: pull-down.

“And” between values parts separate entries of the source, which are not always exact repeats. Equal entries are not always repeated. Where two headings read alike, the source gives them in different places.

By stoichiometry N is commonly meant a count of units in the complex or per binding partner. For “full-length HYL1 (Arabidopsis HYPONASTIC LEAVES1) (from UniProt O04492 1-419) (natural protein)”, the stoichiometry N in data set [1] is 8 and 10; in data set [2] it was 2. For the same molecule, the percent of the monomer peak shifted to the 110 kDa peak in data set [2] amounted to 90%.

B1: HYL1 dsRBD2 (HR2; residues 100-172) (domain or fragment, Arabidopsis, UniProt O04492 100-172, looked up)
chain: GLCKNLLQEYAQKMNYAIPLYQCQKVETLGRVTQFTCTVEIGGIKYTGAATRTKKDAEISAGRTALLAIQSDT
As for B1, in “crystal structure”, the binding result is on record as “binds”.

B2: HYL1 dsRBD1+2 (HR1+2; residues 15-172) (domain or fragment, Arabidopsis, UniProt O04492 15-172, looked up)
chain: VFKSRLQEYAQKYKLPTPVYEIVKEGPSHKSLFQSTVILDGVRYNSLPGFFNRKAAEQSAAEVALRELAKSSELSQCVSQPVHETGLCKNLLQEYAQKMNYAIPLYQCQKVETLGRVTQFTCTVEIGGIKYTGAATRTKKDAEISAGRTALLAIQSDT
Regarding B2, in the data set with GST-HYL1 fusion protein, the binding result was “binds”.

B3: HR2 (residues 101-171) used in the pull-down (domain or fragment, Arabidopsis, UniProt O04492 101-171, looked up)
chain: LCKNLLQEYAQKMNYAIPLYQCQKVETLGRVTQFTCTVEIGGIKYTGAATRTKKDAEISAGRTALLAIQSD
Consider B3, for which the binding result in the data set with GST-HYL1 fusion protein is “binds”.
